From US20130316374A1, “BREAST CANCER DIAGNOSTICS” (IMBA - INSTITUT FUR MOLEKULARE BIOTECHNOLOGIE GMBH, priority 2010, published 2013)
Entries after “also recorded” stand apart in the source; their conditions may differ.

B1: RANKL: Receptor Activator of NF-κB Ligand; recombinant murine RANKL used for stimulation (protein, UniProt O35235 139-316, looked up)
Tumor necrosis factor ligand …: FSGAPAMMEGSWLDVAQRGKPEAQPFAHLTINAASIPSGSHKVTLSSWYHDRGWAKISNMTLSNGKLRVNQDGFYYLYANICFRHHETSGSVPTDYLQLMVYVVKTSIKIPSSHNLMKGGSTKNWSGNSEFHFYSINVGGFFKLRAGEEISIQVSNPSLLDPDQDATYFGAFKVQDID

How the values were obtained:
[1] = tested on: mammary epithelial cells; test: γ-irradiation induced mammary epithelial cell apoptosis in vivo (active Caspase 3); design: species or system mouse; conditions: 5 Gray
Experimental: a, Western blotting for phosphorylated (P) IKKα, total IKKα, phosphorylated (P) p65 NFκB, total p65 NFκB, phosphorylated (P) IκBα, and total IκBα in isolated primary mouse mammary gland epithelial cells (MECs) in response to RANKL stimulation (1 μg/ml). […] Expression was determined by qRT-PCR. […] Apoptosis was detected by immunostaining for active Caspase 3. f, Apoptotic nuclei of epithelial cells (arrows) are shown for representative mammary gland sections. Magnifications ×40. g, Quantification of mammary epithelial apoptosis. A minimum of 5000 nuclei was counted for each mouse. […]
a,b, Reduced induction of mammary epithelial cell apoptosis in response to γ-irradiation in IKKαhu Δmam females. […] 24 hours after irradiation, apoptosis was detected by immunostaining for active Caspase 3. a, Apoptotic nuclei of epithelial cells (arrows) are shown for representative mammary gland sections. Magnifications ×40. b, Quantification of mammary epithelial apoptosis. A minimum of 5000 nuclei was counted for each mouse. […]
For histological analysis, 5 μm sections were cut and stained with hematoxylin and eosin (H&E). […] Histomorphometric indices (proliferation and apoptosis) were calculated as the number of positive epithelial cells divided by the total number of epithelial cells, with no fewer than 1000 nuclei for Ki67 stainings and no fewer than 5000 cells for active Caspase 3 staining counted per section. […]

[2] = tested on: human SKBR3 breast cancer cells; test: Soft-Agar Colony Formation Assay; type: cell-based; conditions: RANKL (1 μg/ml), 18 days in culture
Experimental: a, Western blotting for phosphorylated (P) IKKα, total IKKα, phosphorylated (P) p65 NFκB, total p65 NFκB, phosphorylated (P) IκBα, and total IκBα in isolated primary mouse mammary gland epithelial cells (MECs) in response to RANKL stimulation (1 μg/ml). […] is shown as loading control. b, Western blotting for IKKα, IKKβ, IKKγ, phosphorylated (P) p65 NFκB, total p65 NFκB, phosphorylated (P) IκBα, and total IκBα in pooled late stage mammary adenocarconimas (n=4 for each lane) that developed in control, RANK^Δmam, and IKKα^Δmam females. β-actin is shown as loading control c, Expression of RANK, CyclinD1, and p21 mRNA in late stage mammary adenocacinomas that developed in control, RANK^Δmam, and IKKα^Δmam females. Expression was determined by qRT-PCR. Data are mean values+/−sem. n=4 per group. d, Soft-Agar Colony Formation Assay. Growth of human SKBR3 breast cancer cells in soft agar in response to stimulation with RANKL (1 μg/ml) or EGF (100 ng/ml). […] Apoptosis was detected by immunostaining for active Caspase 3. f, Apoptotic nuclei of epithelial cells (arrows) are shown for representative mammary gland sections. Magnifications ×40. g, Quantification of mammary epithelial apoptosis. A minimum of 5000 nuclei was counted for each mouse. […]

[3] = tested on: primary mouse mammary epithelial cells; test: DNA damage responses (cell cycle arrest, apoptosis) in primary mouse mammary epithelial cells; type: cell-based; conditions: RANKL 1 μg/ml
Experimental: a, Western Blot analysis for γH2AX, phosphorylated (P) Chk1, total Chk1, p53 and β-actin in isolated primary mouse mammary gland epithelial cells in response to γ-irradiation (2 Gray) in the presence (1 μg/ml) or absence of RANKL stimulation. b,c, FACS analysis of propidium iodide (PI) stained b, mammary epithelial cells and c, SKBR3 human breast cancer cells after γ-irradiation (2 Gray) in the absence or presence (1 μg/ml) of RANKL. Data are representative of at least 3 experiments. Apoptotic cells with a DNA content <2n appear in the sub-G1 region. Percent of cells in sub-G1 (M1), G1-phase (M2), S/G2/M-phase (M3) as well as polyploid cells with a DNA content >4n are given for the indicated time points.
a,b, FACS analysis of a, mammary epithelial cells and b, SKBR3 human breast cancer cells incubated with the genotoxic agent doxorubicin (Dox, 1 μM) in the presence (1 μg/ml) or absence of RANKL. Data are representative of at least 3 experiments. Percent of cells in sub-G1 (M1), G1-phase (M2), S/G2/M-phase (M3) as well as polyploid cells with a DNA content >4n are given for 24 and 36 hours after doxorubicin treatment. c, mRNA expression of pro-apoptotic genes Bim, Puma, and Noxa 6 hours after γ-irradiation (2 Gray) in the presence (1 μg/ml) or absence of RANKL stimulation. Data are shown as fold change compared to control (+/−sem). n=3). *P<0.05; **P<0.005 (Student's t-test).
For measurement of cell cycle arrest and apoptosis primary mouse mammary epithelial cells and SKBR3 human breast cancer cells were seeded at a cell-density of 100000 cells/well in a 6-well plate and allowed to grow for 24 hours. Cells where then treated with doxorubicin (1 μM) or γ-irradiation (2 Gray) in the absence or presence of recombinant RANKL (1 μg/ml). Cell cycle arrest and numbers of dead cells were determined using propidium iodine staining. To determine in vivo mammary gland epithelial cell death, control and RANK^Δmam littermate females were γ-irradiated with a total dose of 5 Gray (Gy). Six hours later, mammary glands were isolated and immunostained for active Caspase 3 (Cell Signaling) indicative of apoptosis.

Molecule | γ-irradiation-induced apoptosis of mammary epithelial cells ([1]; control females, MPA pellet) | protective effects of MPA on γ-irradiation-induced cell death ([1]; loss of RANK expression on mammary epithelial cells (RANK^Δmam)) | anchorage-independent growth in soft agar [2] | γ-irradiation-induced upregulation of Bim, Puma, and Noxa mRNA ([3]; 6 hours after γ-irradiation (2 Gray)) | cell death after DNA damage ([3]; doxorubicin (1 μM)) | early cell cycle arrest after DNA damage ([3]; doxorubicin (1 μM)) | cell death after DNA damage ([3]; γ-irradiation (2 Gray)) | early cell cycle arrest after DNA damage ([3]; γ-irradiation (2 Gray)) | induction of γH2AX and p53 or activation of Chk1 ([3]; γ-irradiation (2 Gray))
CC(=O)O[C@]1(C(C)=O)CC[C@H]2[C@@H]3C[C@H](C)C4=CC(=O)CC[C@]4(C)[C@H]3CC[C@@]21C [MPA, medroxyprogesterone acetate] | protected from γ-irradiation-induced apoptosis | abrogated | – | – | – | – | – | – | –
B1 | – | – | induced growth of SKBR3 cells in soft agar; also recorded: macroscopic colonies formed | did not occur | marked protection from cell death | did not alter | marked protection from cell death | did not alter | did not alter
